Assays:
[1] = molecular target: T1, human androgen receptor (AR), full length (human, UniProt P10275 1-920); test: NanoBRET, Nluc and HaloTag fusions co-transfected in HEK293T cells
T1 construct: Full-length AR expressed inside transfected HEK293T cells, not on the cell surface; In the NanoBRET assay it was an N- or C-terminal fusion with Nanoluc luciferase or HaloTag; For co-IP the constructs were with or without an N-terminal FLAG tag; Assays were run with or without 10 nM DHT; also called AR1; AR FL
T1 sequence: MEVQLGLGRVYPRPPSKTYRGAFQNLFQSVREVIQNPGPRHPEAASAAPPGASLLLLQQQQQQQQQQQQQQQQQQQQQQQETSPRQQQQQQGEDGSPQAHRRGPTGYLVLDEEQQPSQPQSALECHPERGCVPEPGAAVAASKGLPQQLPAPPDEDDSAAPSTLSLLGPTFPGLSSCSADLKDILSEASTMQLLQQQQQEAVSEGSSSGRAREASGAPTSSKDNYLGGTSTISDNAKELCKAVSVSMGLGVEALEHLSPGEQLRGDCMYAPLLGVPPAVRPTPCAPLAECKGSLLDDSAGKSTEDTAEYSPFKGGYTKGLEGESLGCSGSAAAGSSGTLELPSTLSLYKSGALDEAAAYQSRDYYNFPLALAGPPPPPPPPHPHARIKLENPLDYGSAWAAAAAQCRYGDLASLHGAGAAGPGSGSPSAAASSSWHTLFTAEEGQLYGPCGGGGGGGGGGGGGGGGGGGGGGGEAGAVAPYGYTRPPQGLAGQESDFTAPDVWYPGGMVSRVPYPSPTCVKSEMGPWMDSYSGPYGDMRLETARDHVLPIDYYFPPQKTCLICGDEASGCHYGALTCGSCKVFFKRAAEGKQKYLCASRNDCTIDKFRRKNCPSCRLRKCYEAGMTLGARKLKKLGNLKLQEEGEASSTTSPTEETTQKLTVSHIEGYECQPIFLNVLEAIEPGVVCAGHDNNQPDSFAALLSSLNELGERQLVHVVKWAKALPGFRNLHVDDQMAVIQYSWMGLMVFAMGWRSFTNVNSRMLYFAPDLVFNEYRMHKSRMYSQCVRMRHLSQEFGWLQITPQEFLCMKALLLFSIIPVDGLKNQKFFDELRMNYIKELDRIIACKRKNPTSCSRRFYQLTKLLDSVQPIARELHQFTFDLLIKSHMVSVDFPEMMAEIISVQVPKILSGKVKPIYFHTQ
Protocol: (§1) To investigate the interaction between AR FL protein and AR2 protein, NanoBRET assay was performed (Promega NanoBRET™ Protein: Protein Interaction System). Briefly, HEK293T cells were co-transfected with a Nanoluc luciferase (Nluc) fusion plasmid and a HaloTag fusion plasmid with Lipofectamine 2000 reagent. Nluc-MDM2 and p53-HaloTag pair was included as the positive control, and Nluc-MDM2 and HaloTag-SMAD4 pair as negative control. At 24 h after transfection, cells were treated with or without 10 nM DHT. HaloTag NanoBRET 618 ligand or DMSO (no-ligand control) was added. At 24 h, NanoBRET Nano-Glo substrate was added and NanoBRET readings at 460 nm and 618 nm were obtained. Mean corrected NanoBRET ratio in milliBRET unit was calculated using the formula: Mean corrected Nanobret ratio, […]

[2] = molecular target: the molecule itself; test: as above
Protocol: as §1

B1: human androgen receptor splice variant 2 (AR2) (receptor)
chain: MILWLHSLETARDHVLPIDYYFPPQKTCLICGDEASGCHYGALTCGSCKVFFKRAAEGKQKYLCASRNDCTIDKFRRKNCPSCRLRKCYEAGMTLGARKLKKLGNLKLQEEGEASSTTSPTEETTQKLTVSHIEGYECQPIFLNVLEAIEPGVVCAGHDNNQPDSFAALLSSLNELGERQLVHVVKWAKALPGFRNLHVDDQMAVIQYSWMGLMVFAMGWRSFTNVNSRMLYFAPDLVFNEYRMHKSRMYSQCVRMRHLSQEFGWLQITPQEFLCMKALLLFSIIPVDGLKNQKFFDELRMNYIKELDRIIACKRKNPTSCSRRFYQLTKLLDSVQPIARELHQFTFDLLIKSHMVSVDFPEMMAEIISVQVPKILSGKVKPIYFHTQ
notes: Whole AR2 expressed inside transfected HEK293T cells; In the NanoBRET assay it was a fusion with Nanoluc luciferase or HaloTag; For co-IP it was with or without an N-terminal FLAG tag (anti-FLAG M2 beads); also called AR45; AR splice variant 2
Q: Does B1 bind [1]?
A: binds

Q: Does B1 bind [2]?
A: binds

— patent US20220380438A1 (OXFORD UNIVERSITY INNOVATION, published 2022)
